Here are results for five molecules from US20250084176A1 (F STAR BETA, published 2025).

Where a chain is given by its changes, count along the chain named.

The target in test [1] is T1, human CD137, full length, on cells (human, UniProt Q07011 24-255). Kind of test: cell-based or functional assay.
Test [2] deals with T2, hCD137-mFc-Avi (human; mouse, UniProt Q07011 24-186, one biotin on the Avi sequence of each monomer (BirA); unbiotinylated in the SPR of Example 5.6).
T2 construct: Made in-house in HEK293-6E; also called human CD137-mFc-Avi; dimeric human CD137; not shown: mouse IgG2a Fc domain (mIgG2a Fc)
T2 sequence (Q07011 24-186): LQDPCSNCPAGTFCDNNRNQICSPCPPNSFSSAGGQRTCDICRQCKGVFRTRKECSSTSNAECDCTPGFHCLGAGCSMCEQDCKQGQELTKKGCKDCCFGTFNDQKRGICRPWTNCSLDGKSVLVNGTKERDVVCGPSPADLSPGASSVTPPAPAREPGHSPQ
Kind of test: SPR (Biacore), mAb2 captured by anti-human Fab, antigen in solution, 1:1 Langmuir. How it is done: (§1) An anti-human Fab capture antibody was immobilised on all four flow cells of a CM5 series S chip (GE Healthcare #BR-1005-30) to an average surface density of 6000 RU following the manufacturer's recommendations (GE Healthcare, human Fab capture Kit, #28958325). IEach mAb² was captured to approximately 150 RU by injecting a 3 μg/ml solution of mAb² diluted in HBS-EP+ buffer (GE Healthcare #BR1006-69) for 60 seconds at 30 μl/min. Then different concentrations of human, cyno or mouse CD137 antigen (unbiotinylated human, cyno or mouse CD137-mFc-Avi or human CD137-Avi-His) in HBS-EP+ buffer were flowed over the chip for 3 min at 60 μl/min and then allowed to dissociate for 10 minutes. After each antigen concentration the chip was regenerated by infecting 10 mM glycine pH 2.1 at a flow rate of 30 μl/min for 30 seconds. Buffer HBS-EP+ was injected before the highest concentration of antigen and after the lowest concentration of antigen for reference subtraction, and one of the concentrations at random was repeated twice. The binding kinetics were fit with a 1:1 Langmuir model to generate equilibrium binding constants (KD) for each sample. Data analysis was performed with BiaEvaluation software version 3.2.
(In general: SPR reads the build-up and loss of mass on a sensor chip optically.)

The target in the next test is T3, cCD137-mFc-Avi (cynomolgus; mouse, one biotin on the Avi sequence of each monomer (BirA); unbiotinylated in the SPR of Example 5.6).
T3 construct: also called cyno CD137-mFc-Avi; dimeric cynomolgus CD137; not shown: mouse IgG2a Fc domain (mIgG2a Fc)
T3 chain: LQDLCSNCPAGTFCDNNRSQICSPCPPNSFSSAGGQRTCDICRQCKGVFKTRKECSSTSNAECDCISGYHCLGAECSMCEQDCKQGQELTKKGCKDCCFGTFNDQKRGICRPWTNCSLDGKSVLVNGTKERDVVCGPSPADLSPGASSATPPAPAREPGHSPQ
Described as above. The procedure:
as §1

Test [3] has as its target T2, hCD137-mFc-Avi. Kind of test: SPR (Biacore T200), mAb2 captured by anti-human Fab, hCD137-mFc in solution, 1:1 Langmuir. The procedure:
For the hCD137-mFc-Avi antigen the following method was used: an anti-human Fab molecule was immobilised on a CM5 chip to a surface density of between 9,000 and 11,000 response units (RU). The antibodies were diluted to 4 μg/ml in HBS-EP buffer and captured by the anti-Fab molecule with a flow rate of […].
For mCD137-mFc-Avi binding kinetic determination, a different approach was used. […] The analysis of the data was done using the Biacore T200 evaluation software. Curves were subtracted against a blank flow cell and fitted using a 1:1 Langmuir binding model with mass transfer, setting RI to zero as constant and Rₘₐₓ to local.

Test [4] deals with T4, mouse CD137, full length, on cells (mouse, UniProt P20334 24-256). Kind of test: cell-based or functional assay.
T4 sequence (P20334 24-256): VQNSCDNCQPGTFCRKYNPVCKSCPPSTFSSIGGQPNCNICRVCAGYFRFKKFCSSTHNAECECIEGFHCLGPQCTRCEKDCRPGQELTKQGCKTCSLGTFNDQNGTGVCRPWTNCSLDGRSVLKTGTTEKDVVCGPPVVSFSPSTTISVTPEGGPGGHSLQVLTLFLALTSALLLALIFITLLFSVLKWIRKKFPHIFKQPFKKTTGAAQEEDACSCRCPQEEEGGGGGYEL
Test [5] deals with T4, mouse CD137, full length, on cells. Kind of test: cell-based or functional assay. This is another data set of the same source.
The target in test [6] is T1, human CD137, full length, on cells. Kind of test: cell-based or functional assay. This is another data set of the same source.
Test [7] has the same target. Kind of test: cell-based or functional assay. This is another data set of the same source.
The target of a further test is T5, human OX40 (human, UniProt P43489 29-216, limits assumed).
T5 sequence (looked up): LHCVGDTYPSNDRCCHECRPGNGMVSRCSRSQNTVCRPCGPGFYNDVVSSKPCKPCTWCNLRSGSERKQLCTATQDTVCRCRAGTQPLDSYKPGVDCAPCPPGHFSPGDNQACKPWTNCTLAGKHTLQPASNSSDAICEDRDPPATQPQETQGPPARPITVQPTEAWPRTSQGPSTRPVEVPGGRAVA
Kind of test: SPR (Biacore T200), receptor amine-coupled to CM5 chip. The procedure: (§2) The specificity of the anti-human CD137 Fcabs for human CD137 compared to other related TNFSFR family members was tested. 8 of the Fcabs were tested in mock mAb² (HeID1.3) format and measured by SPR in a Biacore T200 (GE Healthcare) by testing for binding to other human TNFRSF receptors: CD40, OX40 and GITR. Amine coupling (amine coupling kit, GE Healthcare, BR-1000-50) was used to coat human CD40, GITR and OX40 to approximately 1000 RU in Biacore CM5 chips (GE Healthcare, cat no 29149603). […] The chip was regenerated by injection of 10 mM glycine pH 2.5 for 12 s at 30 μl/min. Antibodies specific to the different TNFRSF members were used as positive controls to verify Biacore chip coating. Data was double reference subtracted and analysed using BIAevaluation 3.2 software.

Another test has as its target human CD40 (human, UniProt P25942 21-193). Described as above. The procedure:
as §2

The target of another test is T6, human GITR (human, UniProt Q9Y5U5 26-161, limits assumed).
T6 sequence (looked up): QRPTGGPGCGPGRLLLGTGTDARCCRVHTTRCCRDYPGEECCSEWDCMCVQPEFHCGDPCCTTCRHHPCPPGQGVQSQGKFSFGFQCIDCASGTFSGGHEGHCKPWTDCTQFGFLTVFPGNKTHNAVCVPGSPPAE
Described as above. How it is done:
as §2

A further test has as its target T7, hCD137-Avi-His (human, UniProt Q07011 24-186, single biotin on the Avi sequence (BirA); unbiotinylated in the SPR of Example 5.6).
T7 construct: also called human CD137-Avi-His; monomeric human CD137
Kind of test: SPR (Biacore), mAb2 captured by anti-human Fab, antigen in solution, 1:1 Langmuir. The procedure:
as §1

T1 sequence (Q07011 24-255): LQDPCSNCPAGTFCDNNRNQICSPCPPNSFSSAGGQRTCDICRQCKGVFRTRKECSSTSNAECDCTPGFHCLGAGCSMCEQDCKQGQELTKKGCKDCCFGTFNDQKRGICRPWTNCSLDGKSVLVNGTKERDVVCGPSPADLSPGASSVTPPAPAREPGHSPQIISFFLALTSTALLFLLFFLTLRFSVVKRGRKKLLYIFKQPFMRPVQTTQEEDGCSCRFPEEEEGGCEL
T7 sequence (Q07011 24-186): as the sequence (Q07011 24-186) above
Chain of human CD40 (P25942 21-193 limits assumed): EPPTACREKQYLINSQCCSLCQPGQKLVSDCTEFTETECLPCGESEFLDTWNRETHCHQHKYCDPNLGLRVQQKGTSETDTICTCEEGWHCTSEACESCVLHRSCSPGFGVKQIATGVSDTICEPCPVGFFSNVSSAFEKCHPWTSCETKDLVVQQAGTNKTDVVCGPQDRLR

B1: FS22-053/HelD1.3 (bispecific antibody, human IgG1, kappa)
heavy: QVQLQESGPGLVRPSQTLSLTCTVSGSTFSGYGVNWVRQPPGRGLEWIGMIWGDGNTDYNSALKSRVTMLVDTSKNQFSLRLSSVTAADTAVYYCARERDYRLDYWGQGSLVTVSSASTKGPSVFPLAPSSKSTSGGTAALGCLVKDYFPEPVTVSWNSGALTSGVHTFPAVLQSSGLYSLSSVVTVPSSSLGTQTYICNVNHKPSNTKVDKKVEPKSCDKTHTCPPCPAPELLGGPSVFLFPPKPKDTLMISRTPEVTCVVVDVSHEDPEVKFNWYVDGVEVHNAKTKPREEQYNSTYRVVSVLTVLHQDWLNGKEYKCKVSNKALPAPIEKTISKAKGQPREPQVYTLPPSRDELNPPYLFSNQVSLTCLVKGFYPSDIAVEWESNGQPENNYKTTPPVLDSDGSFFLYSKLTVYYNRWQDGNVFSCSVMHEALHNHYTQKSLSLSPG
light: DIQMTQSPASLSASVGETVTITCRASGNIHNYLAWYQQKQGKSPQLLVYNAKTLADGVPSRFSGSGSGTQYSLKINSLQPEDFGSYYCQHFWSTPRTFGGGTKLEIKRTVAAPSVFIFPPSDEQLKSGTASVVCLLNNFYPREAKVQWKVDNALQSGNSQESVTEQDSKDSTYSLSSTLTLSKADYEKHKVYACEVTHQGLSSPVTKSFNRGEC
notes: Mock mAb^2, IgG1 without LALA; also called FS22-053/HeID1.3
Consider B1, for which the “NF-kB luciferase reporter (HEK.FRT.luc.hCD137), signal with against without Protein L” value in [1] was not below 10 fold. For the same molecule, the values for the Kd with hCD137-mFc-Avi [2] and in the test with cCD137-mFc-Avi were 38 nM and 34 nM, respectively.

B2: FS22-172/HelD1.3 (bispecific antibody, human IgG1, kappa)
heavy: QVQLQESGPGLVRPSQTLSLTCTVSGSTFSGYGVNWVRQPPGRGLEWIGMIWGDGNTDYNSALKSRVTMLVDTSKNQFSLRLSSVTAADTAVYYCARERDYRLDYWGQGSLVTVSSASTKGPSVFPLAPSSKSTSGGTAALGCLVKDYFPEPVTVSWNSGALTSGVHTFPAVLQSSGLYSLSSVVTVPSSSLGTQTYICNVNHKPSNTKVDKKVEPKSCDKTHTCPPCPAPELLGGPSVFLFPPKPKDTLMISRTPEVTCVVVDVSHEDPEVKFNWYVDGVEVHNAKTKPREEQYNSTYRVVSVLTVLHQDWLNGKEYKCKVSNKALPAPIEKTISKAKGQPREPQVYTLPPSRDELRKYYPPYNQVSLTCLVKGFYPSDIAVEWESNGQPENNYKTTPPVLDSDGSFFLYSKLTVGADRWLEGNVFSCSVMHEALHNHYTQKSLSLSPG
light: B1 light
notes: Mock mAb^2, IgG1 without LALA
B2: the “NF-kB luciferase reporter (HEK.FRT.luc.hCD137), signal with against without Protein L” value in test [1] was not below 10 fold. For the same molecule, the results for the Kd with hCD137-mFc-Avi [2] and with cCD137-mFc-Avi were 52 nM and 203 nM, respectively.

B3: FS22-053-017/HelD1.3 (bispecific antibody, human IgG1, kappa)
heavy: B1 heavy with Y418H, N419W, Q422L, D423E
light: B1 light
notes: Mock mAb^2, IgG1 without LALA; also called FS22-053-17; FS22-053-017/HeID1.3
Turning to B3, in the test with hCD137-mFc-Avi [3], the dissociation constant (Kd) (as a rule, the free concentration of one partner at which half of the binding sites on the other are occupied at equilibrium, for simple one-to-one binding) was found to be 4.59 nM; the koff (in general, a measure of how fast the partners let go of each other) was determined as 0.000406 s⁻¹; the association rate constant (kon) – broadly, the rate constant with which the complex forms – was 88500 M⁻¹ s⁻¹. Further, the “IL-2 release, mouse CD137 DO11.10 T cell activation assay: EC50 against that of FS22-053-014” value in test [4] is approximately 8 fold. Also, in test [5], the “IL-2 release, mouse CD137 DO11.10 T cell activation assay, Protein L: +XL EC50” value was found to be 16.7 nM and the “IL-2 release, mouse CD137 DO11.10 T cell activation assay, Protein L: +XL Emax” value came out at 41000 pg/mL. Besides, in test [6], the “IL-2 release, human CD137 DO11.10 T cell activation assay, Protein L: +XL EC50” value turned out to be 0.82 nM.

B4: FS22-172-004/HelD1.3 (bispecific antibody, human IgG1, kappa)
heavy: B2 heavy with R358N, K359Y, Y360I
light: B1 light
notes: Mock mAb^2, IgG1 without LALA
As for B4, the “NF-kB signalling, HEK.FRT.luc.hCD137, +XL (EC50 nM)” value in [7] was determined as 124 nM. Besides, the binding result in the test with human OX40, with human CD40 and with human GITR was “no binding (tested: starting at 1 µM)” in each case. For the same molecule, the results for the dissociation constant Kd with hCD137-mFc-Avi [2] and with cCD137-mFc-Avi were 4.3 nM and 3.5 nM, respectively. Moreover, in the test with hCD137-Avi-His, the “Human monomeric CD137 KD fold difference relative to human dimeric KD” value was more than 200 fold.

B5: FS22-172-003/HelD1.3 (bispecific antibody, human IgG1, kappa)
heavy: B2 heavy with R358P, K359Y, Y360I, Y361I
light: B1 light
notes: Mock mAb^2, IgG1 without LALA
Regarding B5, the “NF-kB signalling, HEK.FRT.luc.hCD137, +XL (EC50 nM)” value in test [7] came out at 32.6 nM. The binding result in the test with human OX40, in the test with human CD40 and with human GITR was “no binding (tested: starting at 1 µM)” throughout. Also, the values for the Kd in the test with hCD137-mFc-Avi [2] and with cCD137-mFc-Avi were 1.5 nM and 1.3 nM, respectively. Further, the “Human monomeric CD137 KD fold difference relative to human dimeric KD” value with hCD137-Avi-His was more than 200 fold.
